# PMC6744468, “Selective autophagy maintains centrosome integrity and accurate mitosis by turnover of centriolar satellites” (Nature Communications, 2019)
# B1: Human PCM1 LIR-contained peptide (peptide)
# peptide: SDEEDFVKVEDLPLKLTIY
# notes: PCM1, human, residues 1958-1976 with the core LIR FVKV; also called PCM1 LIR peptide; PCM LIR peptide; source: synthetic peptide, bought: GenScript Inc
# B2: Human PCM1 LIR-contained peptide (residues 1958-1976) (peptide)
# peptide: SDEEDFVKVEDLPLKLTIY
# notes: pericentriolar material 1 (PCM1), human, residues 1958-1976; core LIR FVKV; also called PCM1 LIR peptide; PCM LIR peptide; source: synthetic peptide, bought: GenScript Inc
# Columns and labels:
# Details in all cases: both partners purified
# [1] = molecular target: T1, GABARAP Y25H (ITC sample) (human, UniProt O95166 1-117, Y25 in GABARAP to H); assay: ITC; 0.4 mM PCM1 LIR peptide titrated into 0.025 mM LC3 and GABARAP proteins in 21 steps, 25 °C, 50 mM Tris-HCl pH 7.4, 100 mM NaCl, one-site binding model
# T1 construct: GABARAP, human, with Y25H, purified protein for ITC; also called mutation of invariant Y25 in GABARAP to H
# T1 sequence (O95166 whole entry Y25H): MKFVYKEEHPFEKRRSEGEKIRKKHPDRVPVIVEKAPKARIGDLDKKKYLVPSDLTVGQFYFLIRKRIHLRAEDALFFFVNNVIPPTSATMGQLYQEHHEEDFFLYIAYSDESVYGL
# [2] = molecular target: LC3B H27Y (ITC sample) (human, UniProt Q9GZQ8 1-120, H27 in LC3B to Y); assay: as above
# [3] = molecular target: T2, GABARAPL2 (ITC sample) (human, UniProt P60520 1-117); assay: as above
# T2 construct: GABARAPL2, human, purified protein for ITC
# T2 sequence (P60520 whole entry): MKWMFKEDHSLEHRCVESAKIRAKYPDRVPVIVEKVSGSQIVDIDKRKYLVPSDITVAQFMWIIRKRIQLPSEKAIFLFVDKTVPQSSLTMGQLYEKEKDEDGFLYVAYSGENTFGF
# [4] = molecular target: LC3B (ITC sample) (human, UniProt Q9GZQ8 1-120); assay: as above
# [5] = molecular target: T3, GABARAP (ITC sample) (human, UniProt O95166 1-117); assay: as above
# T3 construct: GABARAP, human, purified protein for ITC
# T3 sequence (O95166 whole entry): as the sequence (O95166 whole entry Y25H) above, with H25Y counted along it
# [6] = molecular target: T4, GABARAPL2 wild type (ITC sample) (human, UniProt P60520 1-117); assay: ITC; PCM1 LIR peptide 0.4 mM titrated into 0.025 mM LC3 or GABARAP protein in 21 steps; 25 °C; 50 mM Tris-HCl pH 7.4, 100 mM NaCl; one-site binding model
# T4 construct: GABARAPL2, human ATG8 protein; also called GABARAPL2 WT
# T4 sequence (P60520 whole entry): as the sequence (P60520 whole entry) above
# [7] = molecular target: T5, GABARAP wild type (ITC sample) (human, UniProt O95166 1-117); assay: as above
# T5 construct: GABARAP, human ATG8 protein; also called GABARAP-wt; GABARAP WT
# T5 sequence (O95166 whole entry): as the sequence (O95166 whole entry Y25H) above, with H25Y counted along it
# [8] = molecular target: LC3B wild type (ITC sample) (human, UniProt Q9GZQ8 1-120); assay: as above
# [9] = molecular target: LC3B H27Y mutant (ITC sample) (human, UniProt Q9GZQ8 1-120, H27Y); assay: as above
# [10] = molecular target: T6, GABARAP Y25H mutant (ITC sample) (human, UniProt O95166 1-117, Y25H); assay: as above
# T6 construct: GABARAP, human ATG8 protein, with Y25H
# T6 sequence (O95166 whole entry Y25H): as the sequence (O95166 whole entry Y25H) above
Binder,binding result [1],binding result [2],Kd [3] [µM],Kd [4] [µM],Kd [5] [µM],Ka [6] [M⁻¹],stoichiometry N [6],Ka [7] [M⁻¹],stoichiometry N [7],Ka [8] [M⁻¹],stoichiometry N [8],Ka [9] [M⁻¹],Kd [9] [µM],stoichiometry N [9],Ka [10] [M⁻¹],Kd [10] [µM],stoichiometry N [10]
B1,binds,binds,3.2,76,6.4,,,,,,,,,,,,
B2,,,,,,311000,0.98 ± 0.02,157000,0.94 ± 0.04,13200,1,40200,25,1,17900,56,1
